The IC50 is the concentration that gives 50% inhibition. By Km is commonly meant the substrate concentration at which the rate is half of its maximum. Broadly, the kcat is the number of substrate molecules converted per active site and unit of time at saturation.

From article PMC7229144, “Tetracycline-inactivating enzymes from environmental, human commensal, and pathogenic bacteria cause broad-spectrum tetracycline resistance” (Communications Biology, 2020) come the findings set out here.

For data set [1], the target named is T1, Tet(X7) (human gut metagenome, UniProt Z9HWK3IZF4). It counts as binding. To be noted: FAD in IN-conformation.
T1 sequence (Z9HWK3IZF4 21-399 limits assumed): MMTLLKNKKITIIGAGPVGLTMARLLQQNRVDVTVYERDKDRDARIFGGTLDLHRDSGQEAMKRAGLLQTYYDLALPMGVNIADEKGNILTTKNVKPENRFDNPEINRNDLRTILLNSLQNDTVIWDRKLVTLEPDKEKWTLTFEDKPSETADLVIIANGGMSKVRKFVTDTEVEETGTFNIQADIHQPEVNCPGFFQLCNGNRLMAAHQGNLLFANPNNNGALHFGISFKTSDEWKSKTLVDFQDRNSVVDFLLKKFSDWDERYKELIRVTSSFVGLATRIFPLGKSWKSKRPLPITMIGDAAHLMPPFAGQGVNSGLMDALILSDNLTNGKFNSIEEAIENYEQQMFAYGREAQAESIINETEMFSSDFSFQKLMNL
For data set [2], the target named is T1, Tet(X7). Put plainly: absorbance, initial velocity of tigecycline degradation. To be noted: read-out: IC50 (apparent). The format is biochemical.
Data set [3] concerns CN(C)c1cc(NC(=O)CNC(C)(C)C)c(O)c2c1C[C@H]1C[C@H]3[C@H](N(C)C)C(=O)C(C(N)=O)=C(O)[C@@]3(O)C(=O)C1=C2O. Put plainly: purified protein. The conditions noted are these: 0-40 µM substrate, 504 µM NADPH, 5.04 mM MgCl2, 0.4 µM enzyme, 100 mM TAPS pH 8.5, room temperature.
The test system of data set [4] is CN(C)[C@@H]1C(=O)C(C(N)=O)=C(O)[C@@]2(O)C(=O)C3=C(O)c4c(O)c(NC(=O)CN5CCCC5)cc(F)c4C[C@H]3C[C@@H]12. Briefly: purified protein. The conditions noted are these: 0-40 µM substrate, 504 µM NADPH, 5.04 mM MgCl2, 0.4 µM enzyme, 100 mM TAPS pH 8.5, room temperature.
In data set [5] the test system is CN(C)c1cc(CNCC(C)(C)C)c(O)c2c1C[C@H]1C[C@H]3[C@H](N(C)C)C(=O)C(C(N)=O)=C(O)[C@@]3(O)C(=O)C1=C2O. Briefly: purified protein. To be noted: 0-40 µM substrate, 504 µM NADPH, 5.04 mM MgCl2, 0.4 µM enzyme, 100 mM TAPS pH 8.5, room temperature.

Take `Cc1cc2nc3c(=O)[nH]c(=O)nc-3n(C[C@H](O)[C@H](O)[C@H](O)COP(=O)(O)OP(=O)(O)OC[C@H]3O[C@@H](n4cnc5c(N)ncnc54)[C@H](O)[C@@H]3O)c2cc1C` [FAD]: the “X-ray crystal structure, 2.55 Å” value in data set [1] is “The FAD in Tet(X7) retains an IN-conformation”.
`CN(C)[C@@H]1C(=O)C(C(N)=O)=C(O)[C@@]2(O)C(=O)c3c(cc4c(Cl)ccc(O)c4c3O)C[C@@H]12` [anhydrodemeclocycline]: the IC50 in data set [2] was found to be 260 ± 40 nM.
On the same count and under the same terms, with `Cc1c2c(c(O)c3c(O)cccc13)C(=O)[C@]1(O)C(=O)C(C(N)=O)=C(O)[C@@H](N(C)C)[C@@H]1C2` [anhydrotetracycline] the figure was 1060 ± 108 nM.
Turning to Tet(X7) (uncultured bacterium), the Km worked out at 4 ± 0.4 µM in data set [3], 6 ± 1 µM in data set [4] and 4 ± 0.4 µM in data set [5]. The kcat in data set [3] is 0.005 ± 0.00017 s⁻¹; in data set [5], 0.0033 ± 0.0001 s⁻¹.
